B1: Ras-related protein Rab-27A (Homo sapiens), P51159 (parent)
chain: MSDGDYDYLIKFLALGDSGVGKTSVLYQYTDGKFNSKFITTVGIDFREKRVVYRASGPDGATGRGQRIHLQLWDTAGQERFRSLTTAFFRDAMGFLLLFDLTNEQSFLNVRNWISQLQMHAYCENPDIVLCGNKSDLEDQRVVKEEEAIALAEKYGIPYFETSAANGTNISQAIEMLLDLIMKRMERCVDKSWIPEGVVRSNGHASTDQLSEEKEKGACGC
partner: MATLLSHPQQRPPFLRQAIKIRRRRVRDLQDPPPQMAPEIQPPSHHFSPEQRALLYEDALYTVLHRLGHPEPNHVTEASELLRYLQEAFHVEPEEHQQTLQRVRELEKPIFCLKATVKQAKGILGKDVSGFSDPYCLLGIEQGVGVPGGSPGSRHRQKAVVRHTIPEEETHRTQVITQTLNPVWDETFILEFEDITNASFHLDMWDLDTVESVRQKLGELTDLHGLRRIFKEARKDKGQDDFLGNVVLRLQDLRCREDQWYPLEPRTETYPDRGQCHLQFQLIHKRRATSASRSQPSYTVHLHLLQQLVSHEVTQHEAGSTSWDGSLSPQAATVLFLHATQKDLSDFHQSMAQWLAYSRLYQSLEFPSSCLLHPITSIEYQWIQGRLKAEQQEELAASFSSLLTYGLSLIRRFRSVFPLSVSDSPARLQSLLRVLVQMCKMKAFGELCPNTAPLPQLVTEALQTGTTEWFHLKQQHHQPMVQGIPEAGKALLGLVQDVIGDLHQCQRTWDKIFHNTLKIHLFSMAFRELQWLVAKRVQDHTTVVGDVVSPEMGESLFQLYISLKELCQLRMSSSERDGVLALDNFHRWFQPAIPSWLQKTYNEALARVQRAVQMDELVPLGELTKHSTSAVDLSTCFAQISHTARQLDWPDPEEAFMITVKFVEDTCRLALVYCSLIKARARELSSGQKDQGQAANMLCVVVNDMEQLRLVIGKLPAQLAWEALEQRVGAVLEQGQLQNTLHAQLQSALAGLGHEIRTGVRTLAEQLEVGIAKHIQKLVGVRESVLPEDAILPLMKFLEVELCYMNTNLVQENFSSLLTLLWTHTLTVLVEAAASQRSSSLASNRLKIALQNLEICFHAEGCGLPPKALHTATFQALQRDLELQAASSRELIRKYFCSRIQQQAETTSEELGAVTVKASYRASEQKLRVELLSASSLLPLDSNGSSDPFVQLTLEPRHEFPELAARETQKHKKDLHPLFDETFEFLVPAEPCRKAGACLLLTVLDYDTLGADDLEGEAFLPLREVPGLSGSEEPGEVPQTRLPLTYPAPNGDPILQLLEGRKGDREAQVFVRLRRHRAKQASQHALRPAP
B2: Protein unc-13 homolog D (Homo sapiens), Q70J99 (parent)
chain: B1 partner

Variants of: B1
Conditions: with un13d_human UNC13D

effect of a mutation on the interaction	Variant
disrupting interaction strength	A87P
disrupting interaction strength	T23N
with no effect	Q78L

Variants of: B2
Conditions: with rb27a_human RAB27A

effect of a mutation on the interaction	Variant
disrupting interaction strength	L403P
